In patent US10688197B2, “Non-alcoholic fatty liver regulator 14-3-3 protein” (Korea University Research and Business Foundation, priority 2015, dated 2020):

Assays:
[1] = target: T1, binding between PPARγ2 and 14-3-3γ (Homo sapiens, UniProt P37231); assay: GST-pull down assay, binding between PPARγ2 and 14-3-3γ (HEK-293T)
T1 construct: expressed in transfected cells; host or cells: HEK-293T
T1 sequence (P37231 1-505): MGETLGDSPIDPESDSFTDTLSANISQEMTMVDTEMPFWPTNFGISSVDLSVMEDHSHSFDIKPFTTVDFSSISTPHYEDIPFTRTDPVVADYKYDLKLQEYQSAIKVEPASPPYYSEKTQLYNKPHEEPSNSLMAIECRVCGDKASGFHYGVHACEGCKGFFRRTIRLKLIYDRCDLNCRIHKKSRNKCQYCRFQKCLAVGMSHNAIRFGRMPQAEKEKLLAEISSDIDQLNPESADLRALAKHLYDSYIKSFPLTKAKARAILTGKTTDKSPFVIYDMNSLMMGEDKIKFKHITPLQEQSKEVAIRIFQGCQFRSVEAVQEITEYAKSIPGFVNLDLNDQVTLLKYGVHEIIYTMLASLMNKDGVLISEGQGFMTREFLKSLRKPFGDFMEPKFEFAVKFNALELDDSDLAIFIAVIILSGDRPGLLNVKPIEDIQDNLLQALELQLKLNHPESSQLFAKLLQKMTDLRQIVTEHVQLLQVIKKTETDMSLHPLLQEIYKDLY
Description: After transfection, […], washed with ice-cold PBS, and lysed using 500 μl/well of a lysis buffer (150 mM NaCl, 1 mM EDTA, 1% Nonidet P-40, 5% glycerol, 25 mM tris-HCl, pH 7.5, protease inhibitor added), and the lysed cells were centrifuged at 10,000×g and 4° C. for 10 minutes to extract proteins. Thereafter, 1,000 μg of the proteins was reacted with 20 μl of glutathione Sepharose 4B beads (GE Healthcare, Buckinghamshire, UK) for 6 hours, and then washing of the beads with 1 ml of ice-cold PBS was repeated 5 times, and the beads were boiled at 100° C. for 10 minutes, followed by 10% SDS-PAGE gel separation and western blotting. A ratio of GST antibodies (Santa Cruz) to Myc antibodies (self-production) was 1:3000. The detection of each protein was performed using West Pico ECL (Thermo scientific, Rockford, Ill.) and identified in a darkroom.
After transfection, […], washed with ice-cold PBS, and lysed using 500 μl/well of a lysis buffer (150 mM NaCl, 1 mM EDTA, 1% Nonidet P-40, 5% glycerol, 25 mM tris-HCl, pH 7.5, protease inhibitor added), and the lysed cells were centrifuged at 10,000×g and 4° C. for 10 minutes to extract proteins. […]

[2] = target: T2, PPARγ2 deletion mutant (1-310) (Homo sapiens, UniProt P37231); assay: GST-pull down assay with PPARγ2 deletion mutant (1-310); assay type: binding; conditions: FIG. 3B/3C
T2 construct: Flag-PPARγ2 (1-310) DNA (4 μg); expressed in transfected cells; host or cells: HEK-293T
T2 sequence (P37231 1-310): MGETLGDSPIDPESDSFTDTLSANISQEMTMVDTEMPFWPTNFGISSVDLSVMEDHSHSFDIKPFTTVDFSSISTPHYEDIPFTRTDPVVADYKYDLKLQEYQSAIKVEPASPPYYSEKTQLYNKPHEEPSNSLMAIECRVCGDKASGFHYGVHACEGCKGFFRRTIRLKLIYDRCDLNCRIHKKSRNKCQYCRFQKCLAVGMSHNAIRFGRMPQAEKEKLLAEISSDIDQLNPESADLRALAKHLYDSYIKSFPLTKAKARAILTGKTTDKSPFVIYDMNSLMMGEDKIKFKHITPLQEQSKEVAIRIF
Description: HEK-293T cells were seeded in a 100 mm plate at a density of 2×10^6 cells per each well, and then transfected with Flag-PPARγ2 (1-505) DNA (4 μg), Flag-PPARγ2 (1-310) DNA (4 μg), Flag-PPARγ2 (139-505) DNA (4 μg), and mGST-14-3-3β (4 μg) or mGST-14-3-3γ (4 μg) using an E-fection plus reagent (Lugen). For Flag-PPARγ2 (1-310) DNA and Flag-PPARγ2 (139-505) DNA, DNA fragments amplified through polymerase chain reaction (PCR) were cloned into a pCMV-3Tag-1 vector using restriction enzymes XhoI and ApaI. A ratio of DNA to the E-fection plus reagent was 1:2, and this method was performed according to a manufacturer's manual. The corresponding cells were washed with ice-cold PBS and lysed using 500 μl/well of a lysis buffer (150 mM NaCl, 1 mM EDTA, 1% Nonidet P-40, 5% glycerol, 25 mM tris-HCl, pH 7.5, protease inhibitor added), and the lysed cells were centrifuged at 10,000×g and 4° C. for 10 minutes to extract proteins. Thereafter, 1,000 μg of the proteins was reacted with 20 μl of glutathione Sepharose 4B beads (GE Healthcare, Buckinghamshire, UK) for 6 hours, and then washing of the beads with 1 ml of ice-cold PBS was repeated 5 times, and the beads were boiled at 100° C. for 10 minutes, followed by 10% SDS-PAGE gel separation and western blotting. A ratio of GST antibodies (Santa Cruz) to Flag antibodies (Santa Cruz) was 1:3000. […]

14-3-3β: 14-3-3 isoform protein overexpressed by DNA transfection; increases the transcriptional activity of PPARγ2 by binding to PPARγ2
binding between 14-3-3γ and PPARγ2 ([1]; expression amount of 14-3-3β increased (HA-14-3-3β DNA 2 and 4 μg), FIG. 5B): reduced
binding to PPARγ2 deletion mutant (1-310) [2]: bound

CCCCCCCC/C=C\CCCCCCCC(=O)O [oleic acid]
binding between PPARγ2 and 14-3-3γ ([1]; 200 μM oleic acid 72 hours, FIG. 8B): reduced

14-3-3γ: 14-3-3 isoform protein overexpressed by DNA transfection; decreases the transcriptional activity of PPARγ2; proposed active ingredient
binding to PPARγ2 deletion mutant (1-310) [2]: bound
